Measurements reported in the RNAGym collection of RNA variant scans (doi:10.1073/pnas.2313332121).

B1: TPR t1 (parent)
chain: GACCAAUCUGCCCUCAGAGCUCGAGAACAUCUUCGGAUGCAGAGGAGGCAGGCUUCGGUGGCGCGAUAGCGCCAACGUCCUCAACCUCCAAUGCAUCCCACCACAUGAUGAUGCCUGAAGAGCCUUGGUUUUUUG

Variants of: B1
Assay: polymerase ribozyme fitness, log enrichment relative to wild type (log ratio); higher = more active; in vitro selection for triplet polymerase activity
Procedure, shortened: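 Each subunit of a heterodimeric triplet polymerase ribozyme was represented by a PCR-built, transcribed mutant library that underwent triplicate single-round in vitro selection with frozen incubation at −7 °C. Extended constructs were recovered by gel excision, streptavidin-bead capture and RT-PCR, and Illumina sequencing of input and output libraries kept genotypes with ≥10 input reads and ≥1 read per output. Fitness is the logarithm of genotype enrichment relative to wild-type enrichment, from inverse-variance-weighted replicate averages, with a logarithm base of 2.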

Variant	polymerase ribozyme fitness (log ratio)
C20G G42A G45A U54G C79U C123U	-6.38
C20A G61C A121G G128U	-5.15
C20A G77A G135U	-3.74
C20G C123U U126A	-3.94
C20U C56U C70U A84U U130C	-2.96
C20A G52C C72A	-2.79
C20A G122A C123G	-0.681
C20U A90U G110U	-4.33
C20A U131G	-2.8
C20A U92G G122U	-4.6
C20U C56U	-1.64
C20U C56G	-1.53
C20A G61C	-4.5
C20U C72A C102U U109A C114A U133G	-5.73
C20G A75U	-4.41
C20U A29G G61U C115A U116C G117U G135C	-1.97
C20U C56G G63C	-5.5
C20U A46U C89U	-3.4
C20A U21A U54C C94U U109G	-5.29
C20G U54G C73A C89G A100C	-5.53
C20G C64A C70G G113A U125G U133G	-5.92
C20G U109G	-3.38
C20A G57C C62U G120C	-2.1
C20G C53G G57C A91G	-5.64

Variant	polymerase ribozyme fitness (log ratio)
C20A U112A	0.09
C20G G52C A95G C102A C115U	-6.79
C20G A43C C53A A119G	-5.03
C20U A29G G61U C115A U116C G117U	-1.83
C20G U32C G48C G120A U130A	-5.95
C20G C62A C98A G110C C114A	-8.01
C20G G110C G120C	-6.34
C20U C40U G61U U96G C115G U134A	-3.07
C20G U106A	-4.68
C20G A46U C62U C114U	-3.55
C20A U129C	-3.02
C20A G127C	-2.94
C20A G45A G113U	-0.291
C20G C115U A121C	-6.48
C20A G69U C104A	-2.59
C20A G117U U133A	-4.77
C20U A46U	-2.88
C20G A41U C56G G63C A95U A119U	-5.15
C20G C31U G35U U109G	-4.7
C20G G69U C99A	-4.6
C20G A90C C98U C124A U126A	-4.21
C20A G60C	-3.33
C20U C40U A43U G93U	-4.35
C20G A118G	-5.96

Variant	polymerase ribozyme fitness (log ratio)
C20G G44A	-5.14
C20U A24U G60C G63C G69A U81G C98G U109G	-6.52
C20U A83C	-1.52
C20A U106C	-2.55
C20U C49G G52C C72A G93U G117U A119G G128U	-4.52
C20A G110U	-3.99
C20A G42C	-4.12
C20U C62U C94U	-2.47
C20U C62G C101U G110C	-6.8
C20U A111C	-1.7
C20U C64A C98A G117U	-6.4
C20G U55G C72U A119G	-2.6
C20U A43U C53G	-2.28
C20U C72A A83G G113U	-2.08
C20G U32A G44C A111C G113U	-2.86
C20U C53U G113C	-1.84
C20A G65A C94G A105G G110A U125G G128U	-5.13
C20G A119U	-4.11
C20U A90U G93A	-2.41
C20U A27G	-3.07
C20G C49G	-5.11
C20G C64A C98U A105C C114U U116A	-6.79
C20U C70U G113U G120U	-3.51
C20A G52A G60A C98A C99U A105G C114A	-5.87

Variant	polymerase ribozyme fitness (log ratio)
C20A G42U G47U C53U G120U	-3.98
C20G G61A	-3.66
C20G G58A C89G G117U	-4.04
C20U C62G	-3.42
C20U C62U	-1.15
C20G G44C C73U U78A A95C	-6.9
C20A U32A G35C G71U C115A	-5.14
C20G C56G	-4.45
C20G G60C	-4.55
C20A G48U A50U G120U U132C	-4.56
C20G G47C	-5.65
C20G A46U A118G	-5.92
C20A U54G C94U	-3.21
C20G U21A U112A	-0.639
C20G G42U G113C	-3.64
C20G G120C	-2.75
C20U C56U G93A C114G U129G	-2.17
C20U A43G G69C C88U U130A	-5.74
C20U C72U	-1.9
C20U A29C G120A	-3.64
C20U A95G	-1.47
C20G A27G G120A	-5.6
C20A G39U G42A U55C C99U G113C G122A C123U	-6.79
C20U A29G C49A G58A A74U U81A U112A	-3.14

Variant	polymerase ribozyme fitness (log ratio)
C20G U96G	-3.91
C20U A46G C94U G107A U109G G120A	-5.88
C20U C34A	-4.05
C20U C34G	-6.47
C20U C64U	-1.68
C20G G39C A90U C94U G113U C115U U116G	-1.36
C20U A50U U55G C76U U112C G127A	-4.02
C20G G63A C102A U106C G120A U126A	-7.38
C20G G25C	-6.42
C20U A75G	-0.924
C20G G135U	-4.02
C20G U112A	-2.38
C20G A100U U112G	-5.11
C20G C34U G63A C79U C99U A111C	-5.53
C20U C70A	-3.13
C20U C70G	-3.54
C20U C64U C85G C94G	-3.93
C20G C88U C114G U130C U132A	-5.66
C20G C53U G113U	-0.634
C20U C62A G93A U129A	-4.93
C20A G60U U92C A121C	-2.4
C20G A91C C114U	-2.15
C20G A41U C73G U87C U92A C123G	-4.71
C20G G61A A90C A95U	-3.88

Variant	polymerase ribozyme fitness (log ratio)
C20U A26C C89U C124A	-4.83
C20U A43C G47A C82G A95U A105C U112A	-4.61
C20U A37U C79U U112A	0.591
C20U C34G A43U C70U C82U C114A	-7.14
C20U C40U C70U G120C	-1.36
C20A U54G C64G G113C	-7.15
C20G C72G	-4.5
C20G C73A C115G	-5.35
C20A G58C C72U C76U	-3.69
C20U A37U C56U	-1.39
C20U C22A A50C G69U	-2.32
C20G A46U G120A	-4.96
C20U A27U C64U G113A	-3.6
C20U C49U A90U G117U	-4.34
C20G U32G A90U G93U U109C	-4.13
C20U C70U C88A U106C	-2.34
C20G C85G	-3.76
C20A G47A	-3.54
C20G A41C C73A U78A A84C C123U U133G	-3.7
C20U C53A A111G C114U	-7.62
C20U C40A G69C C94G G120U	-5.2
C20G C124G	-3.06
C20A G61C U133G	-4.9
C20U C53A	-3.19

Variant	polymerase ribozyme fitness (log ratio)
C20U A50U A83C	-5.22
C20G C86A	-4.53
C20G C34A A41G C53A G69C G120C	-6.31
C20G C89G C98A G120C	-2.55
C20G A29G C88U U106A	-5.14
C20G C76A	-4.94
C20G C56G A95C G117U C124A	-3.93
C20G G52U	-5.6
C20A G45U A100U	-5.17
C20U A24U U32C C85U C101G G110U	-6.93
C20U C49U C62U G69A	-5.65
C20U C56U G63C C94A G120C	-3.97
C20A G52U C62U U96G G120A	-3.86
C20G A41U C104A G113A U132C	-5.25
C20A U96A	-4.02
C20U C28U C72A C94U	-1.9
C20G A24G G45C C73A C88A C115U	-5.98
C20U A90U C123U	-1.5
C20U A26C G52A G69A C72G A118G G120C U126G	-6.5
C20U C49U G71C A90U G117U	-6.09
C20A G48U U55C	-3.81
C20G C40U G42U C56A	-4.45
C20A G57A C72A U87A	-4.5
